Experimental data taken from the Human Domainome abundance scans (Beltran et al. 2025).
± gives the uncertainty stated by the source.

B1: GAS2-like protein 1, residues 209 to 276; numbered along this chain, Q99501 (parent)
chain: DELVREILGRCTCPDQFPMIKVSEGKYRVGDSSLLIFVRVLRSHVMVRVGGGWDTLEHYLDKHDPCRC

Variants of: B1
Experiment: abundance fitness (aPCA) (normalised: wild type 0, dead -1); higher = more abundant; growth selection in yeast, the domain comes from the species named
Conditions: Homo sapiens

Abundance fitness of substitutions, site by site:
V22: G -0.916 ± 0.39; D -0.327 ± 0.28; L -0.323 ± 0.055; F -0.518 ± 0.13; C -0.365 ± 0.099; S -0.848 ± 0.098; I -0.035 ± 0.081; R -0.428 ± 0.073; T -0.662 ± 0.17; H -0.26 ± 0.12; A -0.311 ± 0.34; M -0.251 ± 0.071; P -0.971 ± 0.29; Y -0.795 ± 0.14
L34: V 0.103 ± 0.047; M 0.131 ± 0.048; E 0.316 ± 0.048; W -0.085 ± 0.043; G 0.135 ± 0.035; Q 0.238 ± 0.063; A 0.191 ± 0.043; R -0.312 ± 0.043; H 0.112 ± 0.12; D 0.379 ± 0.1; S 0.154 ± 0.039; I 0.102 ± 0.063; F -0.124 ± 0.1; T 0.05 ± 0.047; C 0.129 ± 0.065; N 0.094 ± 0.083; Y -0.015 ± 0.074
V29: N -0.793 ± 0.33; A -0.34 ± 0.07; S -0.422 ± 0.09; W -0.551 ± 0.089; T -0.531 ± 0.07; C -0.213 ± 0.077; M -0.187 ± 0.05; H -0.188 ± 0.16; K -0.855 ± 0.19; F -0.163 ± 0.061; R -0.305 ± 0.073; P -0.985 ± 0.15; Q -0.501 ± 0.081; I 0.129 ± 0.047; G -0.807 ± 0.097; E -0.978 ± 0.26; Y -0.489 ± 0.18
F37: C 0.154 ± 0.081; D 0.37 ± 0.089; L 0.141 ± 0.037; E 0.383 ± 0.049; G 0.064 ± 0.038; K 0.134 ± 0.051; M 0.066 ± 0.078; A 0.106 ± 0.042; P 0.256 ± 0.048; N 0.31 ± 0.078; I -0.007 ± 0.068
L35: V -0.041 ± 0.051; I 0.069 ± 0.074; N 0.097 ± 0.085; D -0.003 ± 0.071; M -0.025 ± 0.044; R -0.195 ± 0.052; K -0.227 ± 0.086; T 0.072 ± 0.046; A -0.111 ± 0.051; H -0.247 ± 0.1; Q -0.171 ± 0.17; G -0.383 ± 0.075; Y -0.022 ± 0.058; F -0.187 ± 0.06; W -0.64 ± 0.091; E 0.099 ± 0.087; C -0.013 ± 0.053
K21: R 0.01 ± 0.036; V -0.791 ± 0.087; W -0.397 ± 0.08; I -0.981 ± 0.27; D -0.804 ± 0.2; M -0.297 ± 0.087; P -0.646 ± 0.1; C -0.543 ± 0.21; T -0.739 ± 0.11; Y -0.525 ± 0.12; G -0.689 ± 0.077; H -0.426 ± 0.085; A -0.748 ± 0.14; L -0.541 ± 0.062; Q -0.254 ± 0.076; E -0.396 ± 0.1; N -0.828 ± 0.24; S -0.747 ± 0.088
S32: W -0.892 ± 0.19; D 0.098 ± 0.053; P -0.121 ± 0.056; T -0.026 ± 0.063; R -0.142 ± 0.04; Q -0.044 ± 0.061; Y -0.455 ± 0.096; E 0.013 ± 0.056; K -0.175 ± 0.053; G -0.085 ± 0.047; V -0.596 ± 0.073; N -0.071 ± 0.05; A -0.064 ± 0.046; I -0.755 ± 0.16; M -0.252 ± 0.06; F -0.749 ± 0.11; H -0.16 ± 0.074
G25: L -0.914 ± 0.091; V -0.961 ± 0.18; Q -0.13 ± 0.08; P -0.809 ± 0.19; N -0.116 ± 0.11; F -0.366 ± 0.098; R -0.328 ± 0.048; C -0.236 ± 0.098; W -0.58 ± 0.048; S -0.158 ± 0.041; E -0.345 ± 0.079; K -0.739 ± 0.25; I -1.07 ± 0.18; Y -0.388 ± 0.11; D -0.07 ± 0.082
P18: R -0.012 ± 0.033; N -0.15 ± 0.079; G -0.475 ± 0.058; K 0.026 ± 0.063; H -0.222 ± 0.09; W -0.809 ± 0.12; I -0.524 ± 0.1; Q 0.011 ± 0.072; E -0.132 ± 0.066; S -0.043 ± 0.045; M -0.501 ± 0.085; C -0.512 ± 0.082; D -0.207 ± 0.064; L -0.471 ± 0.054; F -0.645 ± 0.16; Y -0.669 ± 0.14
I20: P -0.917 ± 0.25; R -0.009 ± 0.046; E -0.016 ± 0.087; H 0.167 ± 0.12; S -0.207 ± 0.064; K -0.037 ± 0.2; V -0.021 ± 0.052; L -0.151 ± 0.06; C -0.366 ± 0.1; N -0.111 ± 0.16; A -0.216 ± 0.08; F -0.096 ± 0.069; W 0.008 ± 0.06; Q 0.026 ± 0.1; G -0.498 ± 0.073; Y 0.054 ± 0.054
S23: F -0.83 ± 0.24; H -0.325 ± 0.058; K -0.336 ± 0.079; E 0.099 ± 0.062; V -0.674 ± 0.073; T -0.036 ± 0.057; W -0.53 ± 0.11; M -0.47 ± 0.064; I -0.861 ± 0.2; N -0.483 ± 0.15; Q -0.141 ± 0.089; L -0.809 ± 0.079; R -0.359 ± 0.062; P -0.914 ± 0.12; G 0.013 ± 0.045; D 0.028 ± 0.05; A -0.023 ± 0.048; C -0.031 ± 0.088
S33: Y -0.413 ± 0.065; V -0.647 ± 0.061; A -0.019 ± 0.043; C -0.115 ± 0.048; R -0.043 ± 0.039; K 0.028 ± 0.068; L -0.194 ± 0.046; W -0.637 ± 0.099; I -0.856 ± 0.17; F -0.549 ± 0.11; D 0.039 ± 0.057; N 0.113 ± 0.054; M -0.074 ± 0.054; Q 0.051 ± 0.067; T -0.182 ± 0.058; P 0.01 ± 0.047; E 0.113 ± 0.057; H 0.014 ± 0.077
M19: P -1.05 ± 0.26; L -0.011 ± 0.044; R -0.516 ± 0.081; D -1.18 ± 0.33; I -0.345 ± 0.083; G -0.845 ± 0.17; C -0.664 ± 0.24; F 0.171 ± 0.071; W -0.121 ± 0.079; Q -0.961 ± 0.25; S -0.895 ± 0.13; K -0.527 ± 0.27; A -0.539 ± 0.061; N -0.74 ± 0.3; H -0.429 ± 0.13; E -1.02 ± 0.36; T -0.96 ± 0.17
K26: S -0.075 ± 0.092; V 0.177 ± 0.065; M -0.213 ± 0.17; G -0.589 ± 0.2; W 0.132 ± 0.077; A -0.063 ± 0.16; T 0.149 ± 0.067; E -0.418 ± 0.17; L -0.145 ± 0.11; Q 0.237 ± 0.12; R 0 ± 0.094; N -0.317 ± 0.092; C 0.204 ± 0.18; F -0.013 ± 0.14; H -0.035 ± 0.15
R28: T -0.467 ± 0.1; I -0.208 ± 0.068; G -0.944 ± 0.14; A -0.235 ± 0.053; H -0.549 ± 0.13; F -0.668 ± 0.14; V -0.15 ± 0.048; C -0.159 ± 0.091; E -0.516 ± 0.063; L -0.05 ± 0.04; W -0.403 ± 0.079; P -0.964 ± 0.18; N -0.857 ± 0.18; M 0.041 ± 0.061; Y -0.341 ± 0.068; Q -0.265 ± 0.12; K -0.07 ± 0.044
I36: M 0.058 ± 0.11; Y -0.444 ± 0.15; Q -0.992 ± 0.34; R -0.542 ± 0.1; L 0.148 ± 0.056; W -0.705 ± 0.26; G -0.683 ± 0.22; S -0.673 ± 0.13; F -0.346 ± 0.11; T -0.314 ± 0.11; D -0.863 ± 0.43; K -0.398 ± 0.18; V -0.017 ± 0.099; P -0.592 ± 0.25; A -0.209 ± 0.076; C 0.169 ± 0.097
D31: V -0.146 ± 0.042; F -0.303 ± 0.21; K -0.162 ± 0.062; L -0.141 ± 0.047; H 0.039 ± 0.1; M -0.148 ± 0.057; I -0.144 ± 0.06; A -0.06 ± 0.046; Y -0.181 ± 0.065; W -0.153 ± 0.11; P -0.066 ± 0.09; E 0.007 ± 0.061; Q 0.048 ± 0.098; C -0.146 ± 0.074; G -0.066 ± 0.04; S -0.07 ± 0.049; R -0.087 ± 0.06; T 0.059 ± 0.05; N 0.084 ± 0.064
F17: V -0.768 ± 0.082; R -0.865 ± 0.1; A -0.955 ± 0.15; Y 0.098 ± 0.088; G -0.743 ± 0.08; S -0.925 ± 0.12; M -0.777 ± 0.16; C -1 ± 0.23; K -0.831 ± 0.13; T -0.858 ± 0.11; Q -0.88 ± 0.18; I -0.846 ± 0.19; L -0.667 ± 0.049; W -0.741 ± 0.096
G30: W -0.952 ± 0.19; H -0.653 ± 0.13; V -0.646 ± 0.08; K -0.371 ± 0.085; P -0.506 ± 0.088; T -0.569 ± 0.072; R -0.302 ± 0.049; D -0.337 ± 0.084; N -0.526 ± 0.15; S -0.53 ± 0.058; A -0.35 ± 0.054; C -0.532 ± 0.2; Q -0.603 ± 0.12; E -0.862 ± 0.12; L -0.605 ± 0.068; F -0.927 ± 0.19; M -0.432 ± 0.069; I -0.803 ± 0.21
E24: W -0.422 ± 0.14; Q 0.041 ± 0.15; D 0.062 ± 0.12; S -0.254 ± 0.084; R -0.417 ± 0.075; H -0.193 ± 0.22; V -0.505 ± 0.12; L -0.715 ± 0.19; C -0.588 ± 0.25; P -0.246 ± 0.12; A -0.099 ± 0.085; T -0.579 ± 0.47
Y27: T -0.855 ± 0.17; S -0.861 ± 0.12; M -0.597 ± 0.28; W 0.079 ± 0.087; I -0.287 ± 0.42; R -0.85 ± 0.14; G -0.891 ± 0.12; L -0.849 ± 0.11; F -0.579 ± 0.11; C -0.874 ± 0.26; V -0.996 ± 0.15; P -0.866 ± 0.17
